First the molecules themselves.
B2: NSF-SNAP tag (wild-type NSF with a C-terminal SNAP tag), labelled hexamer (enzyme, Chinese hamster)
chain: MAGRSMQAARCPTDELSLSNCAVVSEKDYQSGQHVIVRTSPNHKYIFTLRTHPSVVPGSVAFSLPQRKWAGLSIGQEIEVALYSFDKAKQCIGTMTIEIDFLQKKNIDSNPYDTDKMAAEFIQQFNNQAFSVGQQLVFSFNDKLFGLLVKDIEAMDPSILKGEPASGKRQKIEVGLVVGNSQVAFEKAENSSLNLIGKAKTKENRQSIINPDWNFEKMGIGGLDKEFSDIFRRAFASRVFPPEIVEQMGCKHVKGILLYGPPGCGKTLLARQIGKMLNAREPKVVNGPEILNKYVGESEANIRKLFADAEEEQRRLGANSGLHIIIFDEIDAICKQRGSMAGSTGVHDTVVNQLLSKIDGVEQLNNILVIGMTNRPDLIDEALLRPGRLEVKMEIGLPDEKGRLQILHIHTARMRGHQLLSADVDIKELAVETKNFSGAELEGLVRAAQSTAMNRHIKASTKVEVDMEKAESLQVTRGDFLASLENDIKPAFGTNQEDYASYIMNGIIKWGDPVTRVLDDGELLVQQTKNSDRTPLVSVLLEGPPHSGKTALAAKIAEESNFPFIKICSPDKMIGFSETAKCQAMKKIFDDAYKSQLSCVVVDDIERLLDYVPIGPRFSNLVLQALLVLLKKAPPQGRKLLIIGTTSRKDVLQEMEMLNAFSTTIHVPNIATGEQLLEALELLGNFKDKERTTIAQQVKGKKVWIGIKKLLMLIEMSLQMDPEYRVRKFLALLREEGASPLDFD
modifications: BG-Alexa647 or BG-DY549 dye on the SNAP tag
notes: N-ethylmaleimide sensitive factor (NSF), Chinese hamster, wild type; also called DY549-labeled NSF; SNAP-tag-labeled WT; source: expressed from pET28a in autoinduction LB medium, purified (Ni-NTA, Superdex 200); not shown: SNAP tag (GGSG linker), C-terminal, kept

Data set [1] has as its target B2. Nature of the data set: single-molecule fluorescence co-localisation with counting of photobleaching steps (TIRF); SNARE vesicles (1:30,000 protein/lipid) held on NeutrAvidin; 100 nM SNAP-tag-αSNAP, then 1 nM Dylight549-labelled NSF with 1 mM ATP and 1 mM EDTA; H50N50 buffer. The note with it: both partners purified.
Data set [2] deals with the molecule itself. As to the kind of experiment: SEC; Superdex 200 16/600 in NSF buffer (50 mM HEPES pH 7.4, 150 mM NaCl, 1 mM DTT, 1 mM ATP, 1 mM EDTA, 10% glycerol). On the technique in general: SEC sorts molecules by how far they enter the pores of the column.

B1: SNAP-tag-αSNAP labelled with BG-Alexa647 (natural protein, bovine, UniProt P81125 1-295, looked up)
chain: MDNSGKEAEAMALLAEAERKVKNSQSFFSGLFGGSSKIEEACEIYARAANMFKMAKNWSAAGSAFCQAAHVHLQLQSKHDAATCFVDAGNAFKKADPQEAINCLMRAIEIYTDMGRFTIAAKHHISIAEIYETELVDIEKAIAHYEQSADYYKGEESNSSANKCLLKVAGYAAQLEQYQKAIDIYEQVGTNAMDSPLLKYSAKDYFFKAALCHFCIDMLNAKLAVQKYEELFPAFSDSRECKRIKKLLEAHEEQNVDSYTEAVKEYDSISRLDQWLTTMLLRIKKTIQGDEEDLR
modifications: BG-Alexa647 dye on the SNAP tag
notes: alpha-soluble NSF attachment protein (αSNAP), bovine; also called SNAP-tag-fused αSNAPs; Alexa647-labeled αSNAP; source: expressed in LB medium with IPTG, purified (Ni-NTA, Superdex 200); not shown: SNAP tag (GGSGGSG linker), N-terminal, kept
As to B1, in data set [1], the binding result is “binds”.

As to B2, in data set [2], the “stoichiometry N” value came out at 6.

Usually stoichiometry N stands for the number of molecules, sites or subunits per partner or assembly.
